In article PMC11484851, “Structure of endothelin ETB receptor–Gi complex in a conformation stabilized by unique NPxxL motif” (Communications Biology, 2024):
Blank lines part the entries; values can stand above or below the substance they belong to.

Experiments:
[1] = molecular target: wild-type ETB receptor, Flag-tagged, expressed in HEK293A cells (human) (UniProt P24530)
[2] = molecular target: Flag-tagged wild-type endothelin type B receptor (ETBR) (human) (UniProt P24530)
[3] = molecular target: ETBR V389A (human) (UniProt P24530)
Sequence of ETBR V389A (human) (P24530 27-442 V389A): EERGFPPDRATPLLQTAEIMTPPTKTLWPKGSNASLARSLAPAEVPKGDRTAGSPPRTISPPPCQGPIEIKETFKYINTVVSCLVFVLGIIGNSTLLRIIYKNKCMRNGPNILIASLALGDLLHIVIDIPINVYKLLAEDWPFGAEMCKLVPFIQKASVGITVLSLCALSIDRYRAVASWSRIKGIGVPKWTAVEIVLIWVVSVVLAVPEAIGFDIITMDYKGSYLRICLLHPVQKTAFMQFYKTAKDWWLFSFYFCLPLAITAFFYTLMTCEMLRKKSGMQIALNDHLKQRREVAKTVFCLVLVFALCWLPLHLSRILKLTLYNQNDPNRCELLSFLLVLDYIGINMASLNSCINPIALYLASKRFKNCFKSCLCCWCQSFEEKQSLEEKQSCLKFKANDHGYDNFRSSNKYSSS

[4] = molecular target: ETBR T324A (human) (UniProt P24530)
Sequence of ETBR T324A (human) (P24530 27-442 T324A): as the sequence (P24530 27-442 V389A) above, with T298A, A363V counted along it

[5] = molecular target: ETBR N134A (human) (UniProt P24530)
Sequence of ETBR N134A (human) (P24530 27-442 N134A): as the sequence (P24530 27-442 V389A) above, with N108A, A363V counted along it

[6] = molecular target: ETBR K391A (human) (UniProt P24530)
Sequence of ETBR K391A (human) (P24530 27-442 K391A): as the sequence (P24530 27-442 V389A) above, with A363V, K365A counted along it

[7] = molecular target: ETBR S390A (human) (UniProt P24530)
Sequence of ETBR S390A (human) (P24530 27-442 S390A): as the sequence (P24530 27-442 V389A) above, with A363V, S364A counted along it

[8] = molecular target: ETBR M300A (human) (UniProt P24530)
Sequence of ETBR M300A (human) (P24530 27-442 M300A): as the sequence (P24530 27-442 V389A) above, with M274A, A363V counted along it

[9] = molecular target: ETBR M296A (human) (UniProt P24530)
Sequence of ETBR M296A (human) (P24530 27-442 M296A): as the sequence (P24530 27-442 V389A) above, with M270A, A363V counted along it

[10] = molecular target: ETBR R318A (human) (UniProt P24530)
Sequence of ETBR R318A (human) (P24530 27-442 R318A): as the sequence (P24530 27-442 V389A) above, with R292A, A363V counted along it

[11] = molecular target: ETBR H314A (human) (UniProt P24530)
Sequence of ETBR H314A (human) (P24530 27-442 H314A): as the sequence (P24530 27-442 V389A) above, with H288A, A363V counted along it

[12] = molecular target: ETBR V325A (human) (UniProt P24530)
Sequence of ETBR V325A (human) (P24530 27-442 V325A): as the sequence (P24530 27-442 V389A) above, with V299A, A363V counted along it

Sequence of LgBiT-inserted Gαi1, wild type (NanoBiT G-protein construct) (P63096 whole entry): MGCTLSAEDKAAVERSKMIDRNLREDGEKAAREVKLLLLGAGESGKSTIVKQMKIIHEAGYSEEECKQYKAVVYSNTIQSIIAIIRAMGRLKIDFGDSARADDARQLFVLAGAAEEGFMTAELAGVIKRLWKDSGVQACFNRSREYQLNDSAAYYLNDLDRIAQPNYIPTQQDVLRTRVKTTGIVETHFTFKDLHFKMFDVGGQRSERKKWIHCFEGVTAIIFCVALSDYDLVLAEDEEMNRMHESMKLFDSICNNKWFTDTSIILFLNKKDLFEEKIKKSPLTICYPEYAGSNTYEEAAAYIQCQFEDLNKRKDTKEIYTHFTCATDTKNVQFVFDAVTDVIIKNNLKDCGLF
Sequence of Flag-tagged wild-type endothelin type B receptor (ETBR) (human) (P24530 27-442): as the sequence (P24530 27-442 V389A) above, with A363V counted along it
Sequence of wild-type ETB receptor, Flag-tagged, expressed in HEK293A cells (human) (P24530 27-442): as the sequence (P24530 27-442 V389A) above, with A363V counted along it

Substance: Gαi1 G352A (LgBiT-inserted NanoBiT construct) (from UniProt P63096 1-354) (natural protein)
NanoBiT Gi-protein dissociation assay, ET-1-induced, HEK293A cells, mutant Gαi against wild type [1]: 50 % decrease

Substance: LgBiT-inserted Gαi1 D350A (from UniProt P63096 1-354) (natural protein)
Supplementary Table 1f: Emax, %WT, of the ET-1 concentration–response in the NanoBiT Gi-protein dissociation assay, HEK293A cells [2]: 92.2 % of WT

Substance: LgBiT-inserted Gαi1 L353A (from UniProt P63096 1-354) (natural protein)
Supplementary Table 1f: Emax, %WT, of the ET-1 concentration–response in the NanoBiT Gi-protein dissociation assay, HEK293A cells [2]: 7.8 % of WT

Substance: LgBiT-inserted Gαi1 N347A (from UniProt P63096 1-354) (natural protein)
Supplementary Table 1f: Emax, %WT, of the ET-1 concentration–response in the NanoBiT Gi-protein dissociation assay, HEK293A cells [2]: 96.5 % of WT

Substance: LgBiT-inserted Gαi1, wild type (NanoBiT G-protein construct) (from UniProt P63096 1-354) (natural protein)
Supplementary Table 1e: Emax, %WT, of the ET-1 concentration–response in the NanoBiT Gi-protein dissociation assay, HEK293A cells [3]: 96.3 % of WT | Supplementary Table 1e: Emax, %WT, of the ET-1 concentration–response in the NanoBiT Gi-protein dissociation assay, HEK293A cells [4]: 77.3 % of WT | Supplementary Table 1c: Emax, %WT, of the ET-1 concentration–response in the NanoBiT Gi-protein dissociation assay, HEK293A cells; WT (35% plasmid) [2]: 62.9 % of WT | Supplementary Table 1c: Emax, %WT, of the ET-1 concentration–response in the NanoBiT Gi-protein dissociation assay, HEK293A cells; WT (50% plasmid) [2]: 76.5 % of WT | Supplementary Table 1c: Emax, %WT, of the ET-1 concentration–response in the NanoBiT Gi-protein dissociation assay, HEK293A cells; WT (100% plasmid) [2]: 100 % of WT | Supplementary Table 1f: Emax, %WT, of the ET-1 concentration–response in the NanoBiT Gi-protein dissociation assay, HEK293A cells; WT Gαi [2]: 100 % of WT | Supplementary Table 1d (same row in 1e): Emax, %WT, of the ET-1 concentration–response in the NanoBiT Gi-protein dissociation assay, HEK293A cells; WT (100% plasmid) [2]: 100 % of WT | Supplementary Table 1c: Emax, %WT, of the ET-1 concentration–response in the NanoBiT Gi-protein dissociation assay, HEK293A cells [5]: 54.6 % of WT | Supplementary Table 1e: Emax, %WT, of the ET-1 concentration–response in the NanoBiT Gi-protein dissociation assay, HEK293A cells [6]: 91.2 % of WT | Supplementary Table 1c: Emax, %WT, of the ET-1 concentration–response in the NanoBiT Gi-protein dissociation assay, HEK293A cells [7]: 28.8 % of WT | Supplementary Table 1d: Emax, %WT, of the ET-1 concentration–response in the NanoBiT Gi-protein dissociation assay, HEK293A cells [8]: 46.9 % of WT | Supplementary Table 1d: Emax, %WT, of the ET-1 concentration–response in the NanoBiT Gi-protein dissociation assay, HEK293A cells [9]: 36.2 % of WT | Supplementary Table 1e: Emax, %WT, of the ET-1 concentration–response in the NanoBiT Gi-protein dissociation assay, HEK293A cells [10]: 88.2 % of WT | Supplementary Table 1e: Emax, %WT, of the ET-1 concentration–response in the NanoBiT Gi-protein dissociation assay, HEK293A cells [11]: 90.2 % of WT | Supplementary Table 1d: Emax, %WT, of the ET-1 concentration–response in the NanoBiT Gi-protein dissociation assay, HEK293A cells [12]: 63.5 % of WT

The remaining lines, values ahead:

NanoBiT Gi-protein dissociation assay, ET-1-induced, HEK293A cells, mutant Gαi against wild type [1]: 50 % decrease
Substance: Gαi1 K345A (LgBiT-inserted NanoBiT construct) (from UniProt P63096 1-354) (natural protein)

Supplementary Table 1f: Emax, %WT, of the ET-1 concentration–response in the NanoBiT Gi-protein dissociation assay, HEK293A cells [2]: 87 % of WT
Substance: LgBiT-inserted Gαi1 C351A (from UniProt P63096 1-354) (natural protein)

Supplementary Table 1f: Emax, %WT, of the ET-1 concentration–response in the NanoBiT Gi-protein dissociation assay, HEK293A cells [2]: 92.1 % of WT
Substance: LgBiT-inserted Gαi1 D341A (from UniProt P63096 1-354) (natural protein)

Supplementary Table 1f: Emax, %WT, of the ET-1 concentration–response in the NanoBiT Gi-protein dissociation assay, HEK293A cells [2]: 87.8 % of WT
Substance: LgBiT-inserted Gαi1 F354A (from UniProt P63096 1-354) (natural protein)

Supplementary Table 1f: Emax, %WT, of the ET-1 concentration–response in the NanoBiT Gi-protein dissociation assay, HEK293A cells [2]: 61.8 % of WT
Substance: LgBiT-inserted Gαi1 G352A (from UniProt P63096 1-354) (natural protein)

Supplementary Table 1f: Emax, %WT, of the ET-1 concentration–response in the NanoBiT Gi-protein dissociation assay, HEK293A cells [2]: 48.9 % of WT
Substance: LgBiT-inserted Gαi1 K345A (from UniProt P63096 1-354) (natural protein)
